What all share (assay): cell-based or functional assay
The target of experiment [1] is wt-fos-Gal4 (SV40).
For experiment [2], the target named is m-fos-Gal4 (SV40).
Experiment [3] has as its target LCK-Gal4 (UniProt P04386).

m-jun-VP16, sequence (P06492 411-455, tags or fused parts left off): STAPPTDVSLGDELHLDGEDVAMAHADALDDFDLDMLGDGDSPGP
CD4-VP16, sequence (P06492 whole entry): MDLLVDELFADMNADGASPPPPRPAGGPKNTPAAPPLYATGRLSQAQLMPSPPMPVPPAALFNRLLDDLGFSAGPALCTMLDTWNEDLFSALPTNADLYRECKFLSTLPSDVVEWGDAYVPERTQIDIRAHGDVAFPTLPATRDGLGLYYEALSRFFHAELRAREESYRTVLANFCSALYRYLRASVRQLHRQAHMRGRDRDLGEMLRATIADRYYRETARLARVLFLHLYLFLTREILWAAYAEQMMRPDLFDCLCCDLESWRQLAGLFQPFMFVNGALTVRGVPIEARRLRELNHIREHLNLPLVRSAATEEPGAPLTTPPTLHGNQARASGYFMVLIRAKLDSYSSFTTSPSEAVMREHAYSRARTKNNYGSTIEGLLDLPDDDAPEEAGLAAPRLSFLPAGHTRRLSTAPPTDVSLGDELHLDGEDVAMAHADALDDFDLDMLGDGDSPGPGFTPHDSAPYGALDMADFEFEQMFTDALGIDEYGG
wt-jun-VP16, sequence (P06492 411-455, tags or fused parts left off): as the sequence (P06492 411-455, tags or fused parts left off) above

In experiment [1], “m-jun-VP16 (from UniProt P06492 411-455; P05412 276-312)” had a Luciferase values (RLU), MeWo cells, G0/G1-synchronized cells, 10xBS Gal4-SV40 promoter of 224 RLU and a Luciferase values (RLU), MeWo cells, proliferating cells, 10xBS Gal4-SV40 promoter of 290 RLU. Also, in experiment [2], the Luciferase values (RLU), MeWo cells, G0/G1-synchronized cells, 10xBS Gal4-SV40 promoter stood at 271 RLU; the Luciferase values (RLU), MeWo cells, G0/G1-synchronized cells, 10xBS Gal4-SV40 promoter, both subunits on one plasmid (Tyr-m-fos-CycA-m-jun) came to 12700 RLU; the Luciferase values (RLU), MeWo cells, proliferating cells, 10xBS Gal4-SV40 promoter worked out at 18300 RLU; the Luciferase values (RLU), MeWo cells, proliferating cells, 10xBS Gal4-SV40 promoter, both subunits on one plasmid (Tyr-m-fos-CycA-m-jun) worked out at 1.02e+06 RLU.
In the case of CD4-VP16 (from UniProt P06492 406-488), in experiment [3], the Luciferase values (RLU), MeWo cells, G0/G1-synchronized cells, 10xBS Gal4-SV40 promoter (Tyr-LCK-Gal4-CycACD4-VP16) amounted to 5990 RLU and the Luciferase values (RLU), MeWo cells, proliferating cells, 10xBS Gal4-SV40 promoter (Tyr-LCK-Gal4-CycACD4-VP16) was determined as 72400 RLU.
In experiment [2], “wt-jun-VP16 (from UniProt P06492 411-455; P05412 276-312)” displayed a Luciferase values (RLU), MeWo cells, G0/G1-synchronized cells, 10xBS Gal4-SV40 promoter of 283 RLU and a Luciferase values (RLU), MeWo cells, proliferating cells, 10xBS Gal4-SV40 promoter of 284 RLU.

The record behind these values is patent US6495346.
